Data reported in patent US20110118447A1.

Molecular target: binding partner of C5A (XPA23)
Test: Biacore K-off

Row | Binder | fold difference in affinity vs original [fold]
1 | C5A (XPA23) VL S93N (antibody, V domains shown) VH: EVQLLESGGGLVQPGGSLRLSCAASGFTFSKYFMFWVRQAPGKGLEWVSVISPSGGMTRYADSVKGRFTISRDNSKNTLYLQMNSLRAEDTAVYYCARVGYGGNSDYWGQGTLVTVSS VL: DIQMTQSPSSVSASVGDRLTIICRASQDINRWLAWYQQTPGNAPKLLIHSATSLQSGVPSRFSGSGSGTDFTLTINSLQPEDFATYYCQQADNFPLTFGGGTKVEIK | 3.76
2 | C5A (XPA23) VL S93Q (antibody, V domains shown) VH: EVQLLESGGGLVQPGGSLRLSCAASGFTFSKYFMFWVRQAPGKGLEWVSVISPSGGMTRYADSVKGRFTISRDNSKNTLYLQMNSLRAEDTAVYYCARVGYGGNSDYWGQGTLVTVSS VL: DIQMTQSPSSVSASVGDRLTIICRASQDINRWLAWYQQTPGNAPKLLIHSATSLQSGVPSRFSGSGSGTDFTLTINSLQPEDFATYYCQQADQFPLTFGGGTKVEIK | 1.54
3 | C5A (XPA23) VL P95D (antibody, V domains shown) VH: EVQLLESGGGLVQPGGSLRLSCAASGFTFSKYFMFWVRQAPGKGLEWVSVISPSGGMTRYADSVKGRFTISRDNSKNTLYLQMNSLRAEDTAVYYCARVGYGGNSDYWGQGTLVTVSS VL: DIQMTQSPSSVSASVGDRLTIICRASQDINRWLAWYQQTPGNAPKLLIHSATSLQSGVPSRFSGSGSGTDFTLTINSLQPEDFATYYCQQADSFDLTFGGGTKVEIK | 1.32
4 | C5A (XPA23) VL P95E (antibody, V domains shown) VH: EVQLLESGGGLVQPGGSLRLSCAASGFTFSKYFMFWVRQAPGKGLEWVSVISPSGGMTRYADSVKGRFTISRDNSKNTLYLQMNSLRAEDTAVYYCARVGYGGNSDYWGQGTLVTVSS VL: DIQMTQSPSSVSASVGDRLTIICRASQDINRWLAWYQQTPGNAPKLLIHSATSLQSGVPSRFSGSGSGTDFTLTINSLQPEDFATYYCQQADSFELTFGGGTKVEIK | 0.88
5 | C5A (XPA23) VL L96S (antibody, V domains shown) VH: EVQLLESGGGLVQPGGSLRLSCAASGFTFSKYFMFWVRQAPGKGLEWVSVISPSGGMTRYADSVKGRFTISRDNSKNTLYLQMNSLRAEDTAVYYCARVGYGGNSDYWGQGTLVTVSS VL: DIQMTQSPSSVSASVGDRLTIICRASQDINRWLAWYQQTPGNAPKLLIHSATSLQSGVPSRFSGSGSGTDFTLTINSLQPEDFATYYCQQADSFPSTFGGGTKVEIK | 0.23

Second part, the binder after the results:

Row | fold difference in affinity vs original [fold] | Binder
6 | 1.45 | C5A (XPA23) VL S93Y (antibody, V domains shown) VH: EVQLLESGGGLVQPGGSLRLSCAASGFTFSKYFMFWVRQAPGKGLEWVSVISPSGGMTRYADSVKGRFTISRDNSKNTLYLQMNSLRAEDTAVYYCARVGYGGNSDYWGQGTLVTVSS VL: DIQMTQSPSSVSASVGDRLTIICRASQDINRWLAWYQQTPGNAPKLLIHSATSLQSGVPSRFSGSGSGTDFTLTINSLQPEDFATYYCQQADYFPLTFGGGTKVEIK
7 | 4.05 | C5A (XPA23) VL P95S (antibody, V domains shown) VH: EVQLLESGGGLVQPGGSLRLSCAASGFTFSKYFMFWVRQAPGKGLEWVSVISPSGGMTRYADSVKGRFTISRDNSKNTLYLQMNSLRAEDTAVYYCARVGYGGNSDYWGQGTLVTVSS VL: DIQMTQSPSSVSASVGDRLTIICRASQDINRWLAWYQQTPGNAPKLLIHSATSLQSGVPSRFSGSGSGTDFTLTINSLQPEDFATYYCQQADSFSLTFGGGTKVEIK
8 | 0.07 | C5A (XPA23) VL L96H (antibody, V domains shown) VH: EVQLLESGGGLVQPGGSLRLSCAASGFTFSKYFMFWVRQAPGKGLEWVSVISPSGGMTRYADSVKGRFTISRDNSKNTLYLQMNSLRAEDTAVYYCARVGYGGNSDYWGQGTLVTVSS VL: DIQMTQSPSSVSASVGDRLTIICRASQDINRWLAWYQQTPGNAPKLLIHSATSLQSGVPSRFSGSGSGTDFTLTINSLQPEDFATYYCQQADSFPHTFGGGTKVEIK
